Assay results taken from the Immune Epitope Database (IEDB).

Tests used:
Test in all cases: IEDB peptide-MHC binding, purified MHC/competitive/radioactivity; filed as Kd, often an IC50 or EC50 that approximates it; ≥ and ≤ were set here for values at or beyond the usual limits of such assays
[1] = target: HLA-A*31:01
[2] = target: HLA-A*33:01
[3] = target: HLA-A*03:01
[4] = target: HLA-A*11:01
[5] = target: HLA-A*68:01
[6] = source organism: SARS coronavirus Tor2
[7] = source organism: Vaccinia virus WR
[8] = source organism: Dengue virus 1 Brazil/97-11/1997
[9] = source organism: Dengue virus 2 Jamaica/1409/1983
[10] = source organism: Mammarenavirus whitewaterense
[11] = source organism: Mammarenavirus brazilense
[12] = source organism: Dengue virus 4 Philippines/H241/1956

Sequence: SQILPDPLK
- Kd [1, 6]: ≥ 25.3 µM
- Kd [2, 6]: ≥ 55.9 µM
- Kd [3, 6]: 17.4 µM
- Kd [4, 6]: 4.55 µM
- Kd [5, 6]: ≥ 50.4 µM

Sequence: KLYEEPLSK
- Kd ([3]; source organism: Homo sapiens): 0.0025 µM

Sequence: KFAEESYTYY
- Kd [1, 7]: ≥ 21.7 µM
- Kd [2, 7]: ≥ 42.1 µM
- Kd [3, 7]: 4.86 µM
- Kd [4, 7]: 10.2 µM
- Kd [5, 7]: 1.13 µM

Sequence: NIRLTDTEY
- Kd [1, 7]: ≥ 77.9 µM
- Kd [2, 7]: ≥ 77.7 µM
- Kd [3, 7]: ≥ 78 µM
- Kd [4, 7]: ≥ 77.9 µM
- Kd [5, 7]: ≥ 77.7 µM

Sequence: KTQFNYFKK
- Kd [1, 6]: 0.00232 µM
- Kd [2, 6]: ≥ 77.3 µM
- Kd [3, 6]: 0.115 µM
- Kd [4, 6]: 0.00226 µM
- Kd [5, 6]: 2.83 µM

Sequence: GFLSRNKKPR
- Kd [2, 8]: 1.77 µM

Sequence: RSNAILHNIY
- Kd [1, 7]: 0.619 µM
- Kd [2, 7]: ≥ 70 µM
- Kd [3, 7]: 3.72 µM
- Kd [4, 7]: 1.36 µM
- Kd [5, 7]: 1.03 µM

Sequence: GILARWSSFK
- Kd [3, 8]: 0.00206 µM
- Kd [4, 8]: 0.0294 µM

Sequence: TTLWEGSPGK
- Kd [4, 8]: 0.085 µM

Sequence: LIVSLCPTKK
- Kd [1, 7]: 11.6 µM
- Kd [2, 7]: ≥ 70 µM
- Kd [3, 7]: 0.226 µM
- Kd [4, 7]: 0.0569 µM
- Kd [5, 7]: 0.35 µM

Sequence: GVAMPNLYK
- Kd [1, 6]: 1.65 µM
- Kd [2, 6]: 14.8 µM
- Kd [5, 6]: 0.0069 µM

Sequence: RAFDIYNEK
- Kd [1, 6]: 0.106 µM
- Kd [2, 6]: ≥ 77.7 µM
- Kd [3, 6]: 0.0108 µM
- Kd [4, 6]: 0.00358 µM
- Kd [5, 6]: 0.378 µM

Sequence: SSNVANYQK
- Kd [1, 6]: 4.04 µM
- Kd [2, 6]: ≥ 77.7 µM
- Kd [5, 6]: 0.0548 µM

Sequence: SLRPQPTELK
- Kd [3, 9]: 0.00301 µM

Sequence: RLQMAGVEVR
- Kd [1, 7]: 0.118 µM
- Kd [2, 7]: 4.95 µM
- Kd [3, 7]: 1.48 µM
- Kd [4, 7]: 14.7 µM
- Kd [5, 7]: 0.91 µM

Sequence: MINYYNEMSR
- Kd [1, 7]: 0.0959 µM
- Kd [2, 7]: 0.406 µM
- Kd [3, 7]: 0.143 µM
- Kd [4, 7]: 0.0533 µM
- Kd [5, 7]: 0.0134 µM

Sequence: IILFILFFAY
- Kd [1, 7]: 1.33 µM
- Kd [2, 7]: 2.57 µM
- Kd [3, 7]: 0.72 µM
- Kd [4, 7]: 11.1 µM
- Kd [5, 7]: 0.325 µM

Sequence: TSEKYSKGYK
- Kd [1, 7]: ≥ 70 µM
- Kd [2, 7]: ≥ 70 µM
- Kd [3, 7]: ≥ 25 µM
- Kd [4, 7]: 1.05 µM
- Kd [5, 7]: 0.924 µM

Sequence: GVFKNPCTSH
- Kd [1, 10]: ≥ 30.1 µM
- Kd [2, 10]: ≥ 70 µM
- Kd [3, 10]: 6.29 µM
- Kd [4, 10]: 2.69 µM
- Kd [5, 10]: ≥ 26 µM

Sequence: KVDTRTPRAK
- Kd [3, 8]: 0.00724 µM

Sequence: IMAYVNQAH
- Kd [1, 11]: 3.41 µM
- Kd [2, 11]: ≥ 36 µM
- Kd [3, 11]: 2.21 µM
- Kd [4, 11]: ≥ 26.9 µM
- Kd [5, 11]: ≥ 23.5 µM

Sequence: MIKNLTQLFK
- Kd [1, 7]: 0.00429 µM
- Kd [2, 7]: 0.318 µM
- Kd [3, 7]: 0.000828 µM
- Kd [4, 7]: 0.000762 µM
- Kd [5, 7]: 0.00162 µM

Sequence: NTPVSMTYLY
- Kd [1, 7]: ≥ 70 µM
- Kd [2, 7]: ≥ 70 µM
- Kd [3, 7]: ≥ 45.5 µM
- Kd [4, 7]: 1.4 µM
- Kd [5, 7]: 0.415 µM

Sequence: TLDDLAIKQY
- Kd [1, 7]: ≥ 70 µM
- Kd [2, 7]: ≥ 70 µM
- Kd [3, 7]: 18.4 µM
- Kd [4, 7]: 2.92 µM
- Kd [5, 7]: ≥ 62.4 µM

Sequence: SSESLVYGIR
- Kd [1, 7]: 0.78 µM
- Kd [2, 7]: 0.623 µM
- Kd [3, 7]: ≥ 34.8 µM
- Kd [4, 7]: 0.476 µM
- Kd [5, 7]: 0.475 µM

Sequence: PSILPSLIK
- Kd [1, 7]: ≥ 36.9 µM
- Kd [2, 7]: ≥ 77.7 µM
- Kd [3, 7]: 1.85 µM
- Kd [4, 7]: 0.383 µM
- Kd [5, 7]: ≥ 40.9 µM

Sequence: SLRTTTVTGK
- Kd [3, 8]: 0.00638 µM

Sequence: LVTFKTAHAK
- Kd [3, 8]: 0.0262 µM
- Kd [4, 8]: 0.478 µM

Sequence: SVTKSSSWK
- Kd [1, 7]: 19.6 µM
- Kd [2, 7]: ≥ 77.7 µM
- Kd [3, 7]: 0.00762 µM
- Kd [4, 7]: 0.00251 µM
- Kd [5, 7]: 0.0412 µM

Sequence: FIVPEFAKQY
- Kd [1, 7]: ≥ 70 µM
- Kd [2, 7]: ≥ 70 µM
- Kd [3, 7]: ≥ 70.1 µM
- Kd [4, 7]: ≥ 69.8 µM
- Kd [5, 7]: 11.3 µM

Sequence: FIMAYVNQAH
- Kd [1, 11]: ≥ 30.2 µM
- Kd [2, 11]: 14.5 µM
- Kd [3, 11]: ≥ 20.3 µM
- Kd [4, 11]: ≥ 42.7 µM
- Kd [5, 11]: 3.45 µM

Sequence: GTMKIKDEER
- Kd [5, 8]: 0.165 µM

Sequence: KTDFGFYQVK
- Kd [3, 12]: 0.0274 µM
- Kd [4, 12]: 0.056 µM

Sequence: RVIDPRRCMK
- Kd [1, 9]: 0.0044 µM

Sequence: RFVKFNDYRK
- Kd [1, 7]: 0.0373 µM
- Kd [2, 7]: 1.83 µM
- Kd [3, 7]: 0.516 µM
- Kd [4, 7]: 0.429 µM
- Kd [5, 7]: 0.0511 µM

Sequence: SFGGASCCLY
- Kd [1, 6]: 2.5 µM
- Kd [2, 6]: 3.77 µM
- Kd [3, 6]: 0.302 µM
- Kd [4, 6]: 0.14 µM
- Kd [5, 6]: 0.18 µM

Sequence: RSCTLPPLR
- Kd [1, 9]: 0.0046 µM

Sequence: RSTAIKVTK
- Kd [1, 7]: 0.00126 µM
- Kd [2, 7]: 11.2 µM
- Kd [3, 7]: 0.214 µM
- Kd [4, 7]: 0.00677 µM
- Kd [5, 7]: 0.0139 µM

Sequence: LMTLMKGASR
- Kd ([1]; source organism: Dengue virus 4 Dominica/814669/1981): 0.0726 µM

Sequence: TFFIFNKLVK
- Kd [1, 6]: 1.55 µM
- Kd [2, 6]: 1.37 µM
- Kd [3, 6]: 0.0818 µM
- Kd [4, 6]: 0.0505 µM
- Kd [5, 6]: 0.49 µM

Sequence: ALYYVHSLLY
- Kd [1, 7]: 11.2 µM
- Kd [2, 7]: ≥ 24.2 µM
- Kd [3, 7]: 0.00039 µM
- Kd [4, 7]: 0.0092 µM
- Kd [5, 7]: 2.24 µM

Sequence: ALYEQVVMDY
- Kd [1, 6]: ≥ 44.6 µM
- Kd [2, 6]: ≥ 27.1 µM
- Kd [3, 6]: 0.348 µM
- Kd [4, 6]: 3.43 µM
- Kd [5, 6]: ≥ 32.5 µM

Sequence: VSLVKKNKK
- Kd [1, 7]: 0.856 µM
- Kd [2, 7]: ≥ 77.7 µM
- Kd [3, 7]: ≥ 58.5 µM
- Kd [4, 7]: 2.28 µM
- Kd [5, 7]: ≥ 27.4 µM
